Here are results for eight molecules from US20240034804A1 (BIORAY PHARMACEUTICAL, published 2024).

For test [1], the target named is SIRPα protein (Acrobiosystems, Cat. No. SIA-H5225), V1 genotype (human) (UniProt P78324). Put plainly: BLI (Octet Red96), SIRPα captured on H1S1K biosensor, antibody as analyte, 1:1 fit. A general note: BLI is a label-free optical method that tracks binding on a fibre tip over time.
The target in test [2] is T1, SIRPα protein (Acrobiosystems, Cat. No. SIA-H5225), V1 genotype (human, UniProt P78324 31-370).
T1 construct: Bought protein; also called recombinant SIRPα protein; antigen SIRPα
Put plainly: ELISA, coated SIRPα (SIA-H5225). As to the method:
The plates were then blocked with 1% BSA-PBS blocking solution for 1 h at 37° C. Plates were washed with PBST. The humanized antibodies were diluted to different concentrations (3-fold serially diluted from 66.7 nM, 11 concentration gradients in total) and added to the plates. After a 1 h incubation at 37° C., plates were washed and HRP-labeled goat anti-human IgG (manufacturer: Abcam, Cat. No. Ab98595, 1:10000 dilution) was added. After a 0.5 h incubation at 37° C., plates were washed and TMB solution was added. After a 5 min incubation at room temperature in the dark, the reaction was terminated by adding 2 N H₂SO₄. Absorbance was read at 450 nm on a microplate reader.

Test [3] addresses T2, biotin-labeled SIRPα (Acrobiosystems, Cat. No. CDA-H82F2), V1 genotype (human, UniProt P78324 31-370, biotin-labeled (site not stated)).
T2 construct: Bought protein; also called SIRPα (V1)
Put plainly: competition ELISA, blocking of biotin-labeled SIRPα binding to coated CD47-Fc (competitor CD47-Fc). As to the method:
(§1) 96-well plates were coated with CD47-Fc (manufacturer: Acrobiosystems, Cat. No. CD7-H5256) at 4° C. overnight. Plates were washed and blocked with 1% BSA-PBST blocking solution. […] After a 1 h incubation at 37° C., plates were washed and HRP-labeled streptavidin (manufacturer: Abcam, Cat. No.: ab7403) was added. After a 0.5 h incubation at 37° C., plates were washed and TMB solution was added. After a 0.5 h incubation at room temperature in the dark, the reaction was terminated by adding 2 N H₂SO₄. Absorbance was read at 450 nm on a microplate reader. IgG (manufacturer: GenScript) was used as the control.
A general note: An ELISA detects its analyte on a solid surface through an enzyme-linked reagent.

The target in test [4] is T2, biotin-labeled SIRPα (Acrobiosystems, …). Kind of test: competition ELISA (FIG. 4B), blocking of biotin-labeled SIRPα (V1) binding to coated CD47-Fc.
Test [5] has as its target T1, SIRPα protein (Acrobiosystems, Cat. No. …). Put plainly: BLI (Octet Red96), SIRPα captured on H1S1K biosensor, antibody as analyte, 1:1 fit.
The target in test [6] is biotin-labeled SIRPα (V2) (Acrobiosystems, Cat. No. SI2-H82W8) (human, UniProt P78324 31-370, biotin-labeled (site not stated)). Kind of test: competition ELISA (FIG. 4C), blocking of biotin-labeled SIRPα (V2) binding to coated CD47-Fc. As to the method:
as §1
(§2) The antibodies were 3-fold serially diluted from 200 nM and a total of nine concentration gradients were prepared.

Test [7] concerns the target biotin-labeled SIRPα (V8) (Acrobiosystems, Cat. No. SI8-H82W6) (human, UniProt P78324 31-370, biotin-labeled (site not stated)). Put plainly: competition ELISA (FIG. 4D), blocking of biotin-labeled SIRPα (V8) binding to coated CD47-Fc. As to the method: as §1, §2
In test [8] the target is T2, biotin-labeled SIRPα (Acrobiosystems, …). Put plainly: competition ELISA (FIG. 4A), blocking of biotin-labeled SIRPα (V1) binding to coated CD47-Fc; FIG. 4A, run beside KWAR23. As to the method: as §1
(§3) The antibodies were 2-fold serially diluted from 83.4 nM and a total of nine concentration gradients were prepared.

Test [9] has the same target. Put plainly: competition ELISA (FIG. 4B), blocking of biotin-labeled SIRPα (V1) binding to coated CD47-Fc; FIG. 4B, run beside 18D5 and 1H9. How it is done: as §1, §3
Test [10] concerns the target membrane SIRPα on THP-1 cells (human myeloid leukemia monocytes endogenously expressing SIRPα) (human) (UniProt P78324). Kind of test: cell-based or functional assay.

Consider KWAR23 (antibody), for which, in test [1], the Kd (commonly the equilibrium constant for the complex coming apart) was determined as 0.0509 nM.

B1: #4 antibody (humanized anti-SIRPα antibody) (antibody, V domains shown)
VH: EVQLVQSGAEVKKPGATVKISCRGSGFNIKDYYIQWVQQAPGKGLEWMGWIDPENGDTKYAPKFQGRVTITADTSTDTAYMELSSLRSEDTAVYYCYAKGPYWGQGTTLTVSS
VL: DIVMTQSPDSLAVSLGERATINCKSSQSLFYSSNQKNFLAWYQQKPGQPPKLLIYWASTRESGVPDRFTGSGSGTDFTLTISSVKAEDLAVYYCQQYYSYPPTFGGGTKLEIK
notes: Full antibody as tested
Turning to B1, the EC50 – broadly, the concentration needed to bring the measured effect to its halfway point – in test [2] amounted to 1.83 nM. In addition, the IC50 (commonly the concentration at which inhibition is half-maximal) in test [3] came to 6.03 nM.

B2: 1H9 (antibody, V domains shown)
VH: QVQLQQPGAERVKPGASVKMSCKASGYTFTSYWITWVKQRPGQGLEWIGDIYPGSGSTNHIEKFKSKATLTVDTSSNTAYMQLSRLTSEDSAVYYCATGYGSSYGYFDYWGQGTTLTVSS
VL: DIQMTQSPASLSASVGETVTITCRASENIYSYLAWYQQKQGKSPQLLVYTAKTLAEGVPSRFSGSGSGTQFSLKINSLQPEDFGNYYCQHQYGPPFTFGSGTRLVIK
In test [4], B2 yielded an IC50 of 4.2 nM.

B3: #11 antibody (humanized anti-SIRPα antibody) (antibody, V domains shown)
VH: QVTLKESGPVLVKPTETLTLTCTVSGFSLSSHGVHWIRQPPGKALEWLAVIWSDGSTTYNSTLKSRLTISKDTSKSQVVLTMTNMDPVDTATYYCARHGNYHYNMDYWGQGTLVTVSS
VL: DIQLTQSPSFLSASVGDRVTITCRTSSRVNSGYLHWYQQKPGKAPKLLIYSTSTLASGVPSRFSGSGSGTEFTLTISSLQPEDFATYYCQQYSSYPWTFGGGTKLEIK
notes: Full antibody as tested
Turning to B3, the midpoint of the response in test [2], the EC50, lay at 0.464 nM. This molecule also gave an IC50 in test [3] of 0.209 nM.

B4: #13 antibody (humanized anti-SIRPα antibody) (antibody, V domains shown)
VH: QVQLVQSGSELKKPGASVKVSCKASGYTFTDYSIHWVRQAPGQGLEWMGWINTETGEPTYADDFKGRFVFSLDTSVSTAYLQICSLKAEDTAVYYCSRGPLYRYDGYGLEYWGQGTLVTVSS
VL: DIVMTQSPDSLAVSLGERATINCKASQSVSNDVAWYQQKPGQPPKLLIYYASNRCTGVPDRFSGSGSGTDFTLTISSLQAEDVAVYYCHQDYISPYTFGGGTKLEIK
notes: Full antibody as tested
Consider B4, for which a half-maximal response in test [2] (EC50) required 0.952 nM. Besides, the IC50 in [3] was determined as 1.5 nM.

B5: #14 antibody (humanized anti-SIRPα antibody) (antibody, human IgG1, kappa, N297A, V domains shown)
VH: QVQLQESGPGLVKPSQTLSLTCTVSGGSISSGYYWSWIRQHPGKGLEWIGYISYDGSRYNNPSLKNRVTISVDTSKNQFSLKLSSVTAADTAVYYCAREEYANYFAYWGQGTTVTVSS
VL: DIVMTQSPDSLAVSLGERATINCKSSQSLFYSSNQKNFLAWYQQKPGQPPKLLIYWASTRESGVPDRFTGSGSGTDFTLTISSVKAEDLAVYYCQQYYSYPPTFGQGTKLEIKR
B5 had an EC50 in [2] of 0.683 nM. The same molecule showed a Kd in test [5] of 0.0217 nM. For the same molecule, the IC50 in test [6] is 7.8 nM; in test [7] it was 11.5 nM; in test [3], 0.132 nM; in test [8], 3.4 nM; in test [9] it was 4.4 nM.

B6: KWAR23 (antibody, V domains shown)
VH: EVQLQQSGAELVKPGASVKLSCTASGFNIKDYYIHWVQQRTEQGLEWIGRIDPEDGETKYAPKFQDKATITADTSSNTAYLHLSSLTSEDTAVYYCARWGAYWGQGTLVTVSS
VL: QIVLTQSPAIMSASPGEKVTLTCSASSSVSSSYLYWYQQKPGSSPKLWIYSTSNLASGVPARFSGSGSGTSYSLTISSMEAEDAASYFCHQWSSYPRTFGAGTKLELK
Turning to B6, in test [10], the Endocytosis rate (%) is 34.7%. In addition, the IC50 was determined as 6.4 nM in [6] and 10.8 nM in test [7].

B7: 18D5 (antibody, V domains shown)
VH: QVQLQQPGAELVRPGSSVKLSCKASGYTFTSYWVHWVKQRPIQGLEWIGNIDPSDSDTHYNQKFKDKASLTVDKSSSTAYMQLSSLTFEDSAVYYCVRGGTGTMAWFAYWGQGTLVTVSA
VL: DVVMTQTPLSLPVSLGDQASISCRSSQSLVHSYGNTYLYWYLQKPGQSPKLLIYRVSNRFSGVPDRFSGSGSGTDFTLKISRVEAEDLGVYFCFQGTHVPYTFGSGTKLEIK
In test [4], B7 returned an IC50 of 4.1 nM.
